What was measured:
[1] = target: T1, mouse Notch3 expressed on the cell surface of U2OS/mNotch3 cells (Mus musculus, UniProt Q61982); experiment: Cell-based ELISA, U2OS/mNotch3 cells; conditions: Table 3; N/B = non-binding
T1 construct: U-2 OS cells stably over-expressing human or mouse full length Notch3 protein on cell surface; expressed in transfected cells; host or cells: U-2 OS (human osteosarcoma)
Method: Humanized hu28 and hu75, and rat-human chimeric, ch28 and ch75, anti-Notch3 antibodies were screened for cell surface Notch3 binding in a cell-based ELISA. U-2 OS cells stably over-expressing human or mouse full length Notch3 protein on cell surface (hereinafter U2OS/hNotch3 and U2OS/mNotch3, respectively) were plated at 50,000 cells/well in 96 well plates (white opaque, BD/VWR) the day before ELISA assay. On the day of the ELISA, culture media was removed from wells and serially diluted (1:3 in blocking buffer) antibody solutions were applied to the plate. Plates were incubated at room temperature for 2 hours before being washed with PBS-Mg/Ca. HRP-conjugated secondary antibody was then applied and incubated with cells for 1 hour as described above for recombinant protein ELISA. […] Data plotting and analyses were performed with Microsoft Excel and Graphpad-Prism software.

[2] = system: HCC2429 lung xenografts; experiment: HCC2429 lung xenograft model (unconjugated antibodies); format: in vivo, mouse; conditions: for tumor volume (mm^3 ± SEM): iv Q4dx4
Method: Additional in vivo experiments were performed with the HCC2429 lung cancer cell line using an unconjugated rat-human chimeric anti-Notch3 antibody, ch75-hIgG1, to determine whether ch75-hIgG1's Notch3 signaling inhibition contributed to the observed potency of the anti-Notch3 hu75-ADCs. To generate xenografts, nude (Nu/Nu) female mice were implanted subcutaneously with 3.5×10^6 HCC2429 cells in 50% Matrigel (BD Biosciences).
The HCC2429 lung model was dosed intravenously Q4d×4 with PBS vehicle, rat-human chimeric anti-Notch3 antibody, ch75-hIgG1, and humanized anti-Notch1 antibody, hu438 VH1.1/VL1.8, at the does provided in Table 22. From 8 animals, mean tumor masses (±SEM) for each treatment group were calculated and compared to the control PBS vehicle group. P-values based on analysis of variance (ANOVA) were calculated to determine statistical significance of observed growth inhibition of anti-Notch treatments versus control PBS using Excel built-in statistical functions. Percent (%) growth inhibition values were calculated from measurements on the final day of the study for drug-treated compared with vehicle-treated mice with the formula 100*{1−[(TreatedDay 14−TreatedDay 0)/(ControlDay 14−ControlDay 0)]}.

[3] = target: T2, cell surface Notch3 on HCC2429 cells (Homo sapiens, UniProt Q9UM47); experiment: Cell-based ELISA, HCC2429 cells; conditions: Table 29; LB = lacked binding
T2 construct: endogenous Notch3 expressing cell lines, HCC2429 and MDA-MB-468; endogenous in cells; host or cells: HCC2429
T2 sequence (Q9UM47 40-2321): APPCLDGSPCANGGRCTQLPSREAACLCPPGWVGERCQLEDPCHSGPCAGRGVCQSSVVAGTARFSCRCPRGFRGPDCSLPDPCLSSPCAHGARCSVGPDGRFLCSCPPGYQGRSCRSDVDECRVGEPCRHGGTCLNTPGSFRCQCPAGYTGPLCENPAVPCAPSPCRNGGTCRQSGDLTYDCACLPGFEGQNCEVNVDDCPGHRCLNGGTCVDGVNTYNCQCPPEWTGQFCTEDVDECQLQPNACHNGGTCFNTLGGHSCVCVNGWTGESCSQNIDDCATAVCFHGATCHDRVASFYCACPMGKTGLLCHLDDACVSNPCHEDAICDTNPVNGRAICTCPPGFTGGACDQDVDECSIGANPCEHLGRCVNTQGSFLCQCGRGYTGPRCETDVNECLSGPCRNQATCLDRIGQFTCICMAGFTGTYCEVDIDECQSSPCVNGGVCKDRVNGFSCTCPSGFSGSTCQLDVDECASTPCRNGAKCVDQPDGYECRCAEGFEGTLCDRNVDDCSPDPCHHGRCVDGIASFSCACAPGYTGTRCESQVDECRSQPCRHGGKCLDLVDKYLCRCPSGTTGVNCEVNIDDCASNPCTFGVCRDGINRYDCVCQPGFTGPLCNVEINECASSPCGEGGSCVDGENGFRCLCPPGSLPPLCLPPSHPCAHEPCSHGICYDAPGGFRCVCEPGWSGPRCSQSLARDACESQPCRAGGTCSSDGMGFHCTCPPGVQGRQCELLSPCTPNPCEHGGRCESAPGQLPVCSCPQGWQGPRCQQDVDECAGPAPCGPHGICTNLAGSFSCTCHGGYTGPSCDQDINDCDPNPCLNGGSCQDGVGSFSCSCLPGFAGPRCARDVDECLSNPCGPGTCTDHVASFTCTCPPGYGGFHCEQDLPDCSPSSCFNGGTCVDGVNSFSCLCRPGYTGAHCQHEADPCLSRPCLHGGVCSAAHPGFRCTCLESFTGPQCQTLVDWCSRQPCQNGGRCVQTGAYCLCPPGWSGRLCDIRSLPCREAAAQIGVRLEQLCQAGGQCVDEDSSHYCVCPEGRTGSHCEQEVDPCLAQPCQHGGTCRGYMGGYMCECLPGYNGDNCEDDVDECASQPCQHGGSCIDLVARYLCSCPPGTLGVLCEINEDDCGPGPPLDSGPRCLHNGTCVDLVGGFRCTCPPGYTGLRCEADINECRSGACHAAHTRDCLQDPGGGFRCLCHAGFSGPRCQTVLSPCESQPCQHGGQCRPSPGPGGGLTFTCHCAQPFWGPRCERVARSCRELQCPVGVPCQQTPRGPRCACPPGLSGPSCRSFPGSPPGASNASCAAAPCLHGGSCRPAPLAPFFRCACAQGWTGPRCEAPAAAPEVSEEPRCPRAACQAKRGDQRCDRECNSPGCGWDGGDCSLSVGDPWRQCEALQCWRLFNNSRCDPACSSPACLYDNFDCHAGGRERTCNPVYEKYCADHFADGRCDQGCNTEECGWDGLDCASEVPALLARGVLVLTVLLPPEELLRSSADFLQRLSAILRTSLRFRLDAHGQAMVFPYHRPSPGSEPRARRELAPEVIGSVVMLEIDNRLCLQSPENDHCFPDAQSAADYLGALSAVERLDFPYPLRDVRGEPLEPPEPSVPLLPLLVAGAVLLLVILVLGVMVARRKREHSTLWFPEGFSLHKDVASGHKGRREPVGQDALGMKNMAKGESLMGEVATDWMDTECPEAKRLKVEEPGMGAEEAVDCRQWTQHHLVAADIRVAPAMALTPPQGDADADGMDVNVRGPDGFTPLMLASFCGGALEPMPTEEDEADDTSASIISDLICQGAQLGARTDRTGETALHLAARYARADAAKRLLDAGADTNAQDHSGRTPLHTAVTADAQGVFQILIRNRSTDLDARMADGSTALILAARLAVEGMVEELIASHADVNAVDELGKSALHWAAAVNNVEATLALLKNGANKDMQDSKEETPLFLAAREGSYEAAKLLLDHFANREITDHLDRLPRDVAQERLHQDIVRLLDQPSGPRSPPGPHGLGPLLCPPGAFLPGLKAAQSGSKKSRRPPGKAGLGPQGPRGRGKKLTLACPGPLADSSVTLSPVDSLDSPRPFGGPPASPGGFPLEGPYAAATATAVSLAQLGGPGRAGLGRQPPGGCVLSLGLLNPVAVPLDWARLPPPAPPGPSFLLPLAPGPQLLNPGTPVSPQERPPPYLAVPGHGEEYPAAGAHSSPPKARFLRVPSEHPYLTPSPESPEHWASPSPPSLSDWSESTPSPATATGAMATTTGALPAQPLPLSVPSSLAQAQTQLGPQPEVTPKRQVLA
Method: Unconjugated anti-Notch3 antibodies, anti-Notch3 ADCs and a negative control antibody (huNeg8.8) were screened for cell surface binding activity to Notch3 expressing cell lines in a cell-based ELISA. Over-expressing Notch3 cell line, U2OS/hNotch3, and endogenous Notch3 expressing cell lines, HCC2429 and MDA-MB-468, were plated at 50,000, 200,000 and 100,000 cells/well, respectively, in 96 well plates (white opaque, BD/VWR) the day before ELISA assay. On the day of the ELISA, culture media was removed from wells and serially diluted (1:3 in DPBS with calcium chloride and magnesium chloride (Ca/Mg) and 1% BSA) antibody and ADC solutions were applied to the plate. Plates were incubated at room temperature for 2 hours before washed with DPBS with Ca/Mg and 1% BSA. HRP-conjugated secondary antibody was then applied and incubated with cells for 1 hour. Plates were washed with DPBS with Ca/Mg and 1% BSA before being developed with Pico-Chemiluminescent developing kit (Thermal Scientific), and chemiluminescence measurements were performed per manufacturer's instructions. Data plotting and analyses were performed with Microsoft Excel and Graphpad-Prism software.
Unconjugated cysteine mutant humanized anti-Notch3 antibodies were screened for cell surface binding activity to Notch3 expressing cell lines in a cell-based ELISA, as described in previous Examples. […]

[4] = target: T3, MDA-MB-468/hNotch3 (Homo sapiens, UniProt Q9UM47); experiment: Flow cytometry (FACS) binding, MDA-MB-468/hNotch3; conditions: 4 μg/mL antibody
T3 construct: cell lines engineered to over-express full length human Notch3 protein: MDA-MB-468/hNotch3 and U2OS/hNotch3; expressed in transfected cells; host or cells: MDA-MB-468
T3 sequence (Q9UM47 40-2321): as above
Method: Unconjugated anti-Notch3 antibodies, hu28 and hu75, were examined for cell surface binding activity to Notch3 expressing cell lines by flow cytometry. Fluorescence activated cell sorting (FACS) analysis was conducted according to standard procedures. Cells were rinsed in HBSS with calcium chloride and magnesium chloride (herein termed HBSS++), harvested using trypsin without EDTA and neutralized with medium containing FBS. Cells were incubated on ice for 30 minutes with 4 μg/mL anti-Notch3 antibodies, hu28 and hu75, in HBSS++containing 3% HICS (heat-inactivated calf serum). Cells were washed three times with cold HBSS++, 3% HICS buffer. Cells were incubated in allophycocyanin-conjugated AffiniPure F(ab′)2 fragment goat anti-human IgG, Fc fragment secondary antibody (Jackson ImmunoResearch Laboratories, Inc., West Grove, Pa.) at 10 μg/mL for 30 minutes on ice in the dark. Cells were washed once with cold HBSS++/3% HICS buffer. Cells were resuspended in HBSS-++/3% HICS, 25 mM HEPES, 1 mM MgCl2 and 25 μg/ml DNaseI. 7-AAD (7-Amino-Actinomycin D) was added for exclusion of nonviable cells. Live cells were analyzed on a BD FACSCalibur flow cytometer (BD Biosciences, San Jose, Calif.). Mean fluorescence intensity (MFI) from channel FL-4 was calculated with FlowJo flow cytometry analysis software (Ashland, Oreg.).

T1 sequence (Q61982 40-2318): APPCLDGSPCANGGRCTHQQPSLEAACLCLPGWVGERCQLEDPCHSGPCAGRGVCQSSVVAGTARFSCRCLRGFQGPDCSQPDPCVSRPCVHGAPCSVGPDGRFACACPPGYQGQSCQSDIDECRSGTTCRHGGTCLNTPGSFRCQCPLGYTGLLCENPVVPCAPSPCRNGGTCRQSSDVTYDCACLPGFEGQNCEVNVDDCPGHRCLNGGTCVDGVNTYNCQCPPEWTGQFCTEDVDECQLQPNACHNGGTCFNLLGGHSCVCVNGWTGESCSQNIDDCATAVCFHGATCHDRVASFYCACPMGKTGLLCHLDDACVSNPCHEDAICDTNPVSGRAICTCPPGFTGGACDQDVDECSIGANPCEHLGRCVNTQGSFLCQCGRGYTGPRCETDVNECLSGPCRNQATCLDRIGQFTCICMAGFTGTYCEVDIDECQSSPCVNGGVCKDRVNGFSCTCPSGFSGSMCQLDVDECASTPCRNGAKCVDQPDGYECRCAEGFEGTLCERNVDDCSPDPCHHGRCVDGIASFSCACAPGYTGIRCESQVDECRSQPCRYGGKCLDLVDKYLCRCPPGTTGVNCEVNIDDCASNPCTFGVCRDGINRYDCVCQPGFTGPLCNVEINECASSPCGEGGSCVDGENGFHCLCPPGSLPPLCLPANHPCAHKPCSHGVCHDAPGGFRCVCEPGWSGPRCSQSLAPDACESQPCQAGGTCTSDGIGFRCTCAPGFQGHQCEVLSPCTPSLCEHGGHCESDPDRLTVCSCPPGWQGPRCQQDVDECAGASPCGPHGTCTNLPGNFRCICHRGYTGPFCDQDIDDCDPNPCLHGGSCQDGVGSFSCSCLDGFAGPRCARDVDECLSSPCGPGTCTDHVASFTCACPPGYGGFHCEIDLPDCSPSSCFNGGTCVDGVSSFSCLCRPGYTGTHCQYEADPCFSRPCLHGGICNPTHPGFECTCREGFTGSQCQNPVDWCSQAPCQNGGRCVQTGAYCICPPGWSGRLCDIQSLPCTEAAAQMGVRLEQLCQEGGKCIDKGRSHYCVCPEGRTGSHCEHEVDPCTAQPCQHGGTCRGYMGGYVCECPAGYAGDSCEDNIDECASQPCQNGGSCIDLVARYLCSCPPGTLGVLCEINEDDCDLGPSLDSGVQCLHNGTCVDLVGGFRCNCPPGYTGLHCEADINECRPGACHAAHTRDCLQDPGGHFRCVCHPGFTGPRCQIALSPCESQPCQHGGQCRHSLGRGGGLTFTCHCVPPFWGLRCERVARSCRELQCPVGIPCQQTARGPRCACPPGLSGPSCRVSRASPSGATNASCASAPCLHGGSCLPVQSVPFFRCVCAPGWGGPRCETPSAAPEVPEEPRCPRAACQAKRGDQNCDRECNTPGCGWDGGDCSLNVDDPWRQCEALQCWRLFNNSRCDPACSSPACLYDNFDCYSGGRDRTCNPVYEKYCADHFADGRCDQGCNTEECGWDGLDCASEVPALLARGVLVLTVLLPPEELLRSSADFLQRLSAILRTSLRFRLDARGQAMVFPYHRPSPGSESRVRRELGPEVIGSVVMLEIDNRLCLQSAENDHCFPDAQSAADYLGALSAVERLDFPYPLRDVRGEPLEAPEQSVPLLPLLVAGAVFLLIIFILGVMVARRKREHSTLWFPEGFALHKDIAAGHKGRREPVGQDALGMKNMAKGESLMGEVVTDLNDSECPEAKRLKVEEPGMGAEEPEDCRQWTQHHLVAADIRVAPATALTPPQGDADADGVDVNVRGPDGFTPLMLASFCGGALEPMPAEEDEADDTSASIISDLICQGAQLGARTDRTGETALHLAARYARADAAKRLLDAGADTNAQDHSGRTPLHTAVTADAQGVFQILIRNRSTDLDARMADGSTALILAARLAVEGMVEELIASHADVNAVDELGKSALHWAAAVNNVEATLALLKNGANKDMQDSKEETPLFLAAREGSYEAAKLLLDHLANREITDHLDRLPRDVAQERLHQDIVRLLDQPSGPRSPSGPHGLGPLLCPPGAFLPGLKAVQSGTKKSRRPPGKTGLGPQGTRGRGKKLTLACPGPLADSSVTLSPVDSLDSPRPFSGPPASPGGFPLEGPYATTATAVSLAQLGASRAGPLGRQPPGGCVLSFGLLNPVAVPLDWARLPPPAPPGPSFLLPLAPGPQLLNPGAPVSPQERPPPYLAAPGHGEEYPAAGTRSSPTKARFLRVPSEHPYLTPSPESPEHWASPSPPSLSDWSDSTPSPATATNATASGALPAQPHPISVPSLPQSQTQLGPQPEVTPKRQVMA

Row | Molecule | EC50 (nM) cell surface Notch3 binding ELISA, Full-length Mouse Notch3 [1] | tumor volume (mm^3 ± SEM) ([2]; Day 0, dose not given) [mm^3] | tumor volume (mm^3 ± SEM) ([2]; Day 3) [mm^3] | tumor volume (mm^3 ± SEM) ([2]; Day 5) [mm^3] | tumor volume (mm^3 ± SEM) ([2]; Day 7) [mm^3] | tumor volume (mm^3 ± SEM) ([2]; Day 10) [mm^3] | tumor volume (mm^3 ± SEM) ([2]; Day 12) [mm^3] | tumor volume (mm^3 ± SEM) ([2]; Day 14) [mm^3] | tumor growth inhibition compared to PBS vehicle ([2]; final day of the study (Day 14)) | EC50 [3] [nM] | MFI [4]
1 | ch75: rat-human chimeric anti-Notch3 antibody 75, rat variable regions fused with human IgG1 and human kappa (antibody, V domains shown) VH: QVKLLQSGAALVKPGASVKMSCKASGYAFTDYWVTWVKQSHGKSLEWIGEISPNSGGTNFNEKFKGKATLTVDKSTSTAYMELSRLTSEDSAIYYCTRGEIRYNWFAYWGQGTLVTVSS VL: NIVMTQSPKSMSISVGDRVTMNCKASQNVGNNIAWYQQKPGQSPKLLIYYASNRYTGVPDRFTGGGYGTDFTLTINSMQAEDAAFYYCQRLYNSPFTFGSGTKLEIK | N/B | 110 ± 5 | 211 ± 24 | 356 ± 41 | 574 ± 59 | 1054 ± 104 | 1441 ± 139 | 1821 ± 175 | did not inhibit tumor growth |  | 
2 | hu28 VH1.0/VL1.0: humanized r28 variant VH1.0/VL1.0, anti-Notch3 antibody (VH SEQ ID NO: 13, VL SEQ ID NO: 25) (antibody, V domains shown) VH: EVQLVESGGGLVQPGGSLRLSCAASGFTFRDYGMTWVRQAPGKGLEWVAYISSGSNYIYYAEAVKGRFTISRDNAKNSLYLQMNSLRAEDTAVYYCARRGPFVLDAWGQGTLVTVSS VL: DIQMTQSPSSLSASVGDRVTITCKASQSINRYLHWYQQKPGKAPKLLIYNANGLQTGVPSRFSGSGSGTDFTLTISSLQPEDFATYYCLQHNTWPDTFGGGTKVEIK |  |  |  |  |  |  |  |  |  | 0.1 | 1192

Reference: patent US9433687B2, “Anti-Notch3 antibodies and antibody-drug conjugates” (Pfizer Inc., priority 2012, dated 2016)
